Numbering of substitutions follows the chain as printed.
B1: TR01H067-E22Hh/none-Hi-Kn010G3/L0212-k0 (antibody, human IgG1, kappa, L234A L235A, N297A)
heavy: QVQLVESGGGLVQPGRSLRLSCAASGFTFSNAWMHWVRQAPGKGLEWVAQIKDKSQNYATYYAESVKGRFTISRDDSKNSLYLQMNSLKTEDTAVYYCRYVHYAASYGVDAWGQGTTVTVSSASTKGPSVFPLAPSSKSTSGGTAALGCLVKDYFPEPVTVSWNSGALTSGVHTFPAVLQSSGLYSLSSVVTVPSSSLGTQTYICNVNHKPSNTKVDKKVEPKSCDKTHTCPPCPAPEAAGGPSVFLFPPKPKDTLMISRTPEVTCVVVDVSHEDPEVKFNWYVDGVEVHNAKTKPREEQYASTYRVVSVLTVLHQDWLNGKEYKCKVSNKALPAPIEKTISKAKGQPREPQVYTLPPSRCELTKNQVSLSCAVKGFYPSDIAVEWESNGQPENNYKTTPPVLDSDGSFFLVSKLTVDKSRWQQGNVFSCSVMHEALHNHYTQKSLSLSPDYKDDDDK
chain: EPKSSDKTHTCPPCPAPELLGGPSVFLFPPKPKDTLMISRTPEVTCVVVDVSHEDPEVKFNWYVDGVEVHNAKTKPREEQYNSTYRVVSVLTVLHQDWLNGKEYKCKVSNKALPAPIEKTISKAKGQPREPQVCTLPPSRDELTKNQVSLWCLVKGFYPSDIAVEWESNGQPENNYKTTPPVLDSDGSFFLYSKLTVDKSRWQQGNVFSCSVMHEALHNRYTQKSLSLSP
light: DIVMTQSPLSLPVTPGEPASISCRPSQSPVHSNRNTYLHWYQQKPGQAPRLLIYKVSNRFSGVPDRFSGSGSGTDFTLKISRVEAEDVGVYYCYQGTQVPYTFGQGTKLEIKRTVAAPSVFIFPPSDEQLKSGTASVVCLLNNFYPREAKVQWKVDNALQSGNSQESVTEQDSKDSTYSLSSTLTLSKADYEKHKVYACEVTHQGLSSPVTKSFNRGEC
notes: single-arm
B2: TR01H082-E22Hh/none-Hi-Kn010G3/TR01L018-k0 (antibody, human IgG1, kappa, L234A L235A, N297A)
heavy: B1 heavy with S106G
chain: B1 chain
light: B1 light with R24Q, P25A, Q27E, Q42L, A48S, R50Q, Y94G
notes: single-arm
B3: TR01H082-E22Hh/none-Hi-Kn010G3/TR01L024-k0 (antibody, human IgG1, kappa, L234A L235A, N297A)
heavy: B1 heavy with S106G
chain: B1 chain
light: B1 light with R24Q, P25A, Q27E, Q42L, A48S, R50Q, Y94T
notes: single-arm
B4: TR01H071-E22Hh/none-Hi-Kn010G3/L0222-k0 (antibody, human IgG1, kappa, L234A L235A, N297A)
heavy: B1 heavy with Q56N, D75A, L81I, A111I
chain: B1 chain
light: B1 light with P25S, L38I, H39Q
notes: single-arm
B5: TR01H081-E22Hh/none-Hi-Kn010G3/L0201-k0 (antibody, human IgG1, kappa, L234A L235A, N297A)
heavy: B1 heavy with D75A, L81I, S106G, A111I
chain: B1 chain
light: B1 light with P25S, S28P, Y94G
notes: single-arm
B6: TR01H082-E22Hh/none-Hi-Kn010G3/L0212-k0 (antibody, human IgG1, kappa, L234A L235A, N297A)
heavy: B1 heavy with S106G
chain: B1 chain
light: B1 light
notes: single-arm
B7: TR01H076-E22Hh/none-Hi-Kn010G3/L0000-k0 (antibody, human IgG1, kappa, L234A L235A, N297A)
heavy: B1 heavy with L11V, R16G, D75A, L81I, A111Y
chain: B1 chain
light: B1 light with P25S, P29L, Y94G
notes: single-arm
B8: TR01H082-E22Hh/none-Hi-Kn010G3/L0258-k0 (antibody, human IgG1, kappa, L234A L235A, N297A)
heavy: B1 heavy with S106G
chain: B1 chain
light: B1 light with P25S, S28P, Y94T
notes: single-arm
B9: TR01H082-E22Hh/none-Hi-Kn010G3/L0266-k0 (antibody, human IgG1, kappa, L234A L235A, N297A)
heavy: B1 heavy with S106G
chain: B1 chain
light: B1 light with P25S, S28P, Y94V
notes: single-arm
B10: TR01H082-E22Hh/none-Hi-Kn010G3/L0263-k0 (antibody, human IgG1, kappa, L234A L235A, N297A)
heavy: B1 heavy with S106G
chain: B1 chain
light: B1 light with P25S, L38I, Y94A
notes: single-arm
B11: TR01H081-E22Hh/none-Hi-Kn010G3/L0011-k0 (antibody, human IgG1, kappa, L234A L235A, N297A)
heavy: B1 heavy with D75A, L81I, S106G, A111I
chain: B1 chain
light: B1 light with P25S, S28P, P29L, Y94G
notes: single-arm
B12: TR01H082-E22Hh/none-Hi-Kn010G3/TR01L023-k0 (antibody, human IgG1, kappa, L234A L235A, N297A)
heavy: B1 heavy with S106G
chain: B1 chain
light: B1 light with P25S, Q42L, A48S, R50Q, Y94T
notes: single-arm
B13: TR01H082-E22Hh/none-Hi-Kn010G3/L0201-k0 (antibody, human IgG1, kappa, L234A L235A, N297A)
heavy: B1 heavy with S106G
chain: B1 chain
light: B1 light with P25S, S28P, Y94G
notes: single-arm
B14: TR01H083-E22Hh/none-Hi-Kn010G3/L0000-k0 (antibody, human IgG1, kappa, L234A L235A, N297A)
heavy: B1 heavy with Q56N, D75A, L81I, S106G, A111I
chain: B1 chain
light: B1 light with P25S, P29L, Y94G
notes: single-arm
B15: TR01H082-E22Hh/none-Hi-Kn010G3/L0264-k0 (antibody, human IgG1, kappa, L234A L235A, N297A)
heavy: B1 heavy with S106G
chain: B1 chain
light: B1 light with Y94A
notes: single-arm
B16: TR01H083-E22Hh/none-Hi-Kn010G3/L0011-k0 (antibody, human IgG1, kappa, L234A L235A, N297A)
heavy: B1 heavy with Q56N, D75A, L81I, S106G, A111I
chain: B1 chain
light: B1 light with P25S, S28P, P29L, Y94G
notes: single-arm
B17: TR01H082-E22Hh/none-Hi-Kn010G3/L0203-k0 (antibody, human IgG1, kappa, L234A L235A, N297A)
heavy: B1 heavy with S106G
chain: B1 chain
light: B1 light with P25S, L38I, Y94G
notes: single-arm
B18: TR01H071-E22Hh/none-Hi-Kn010G3/L0215-k0 (antibody, human IgG1, kappa, L234A L235A, N297A)
heavy: B1 heavy with Q56N, D75A, L81I, A111I
chain: B1 chain
light: B1 light with P25S, S28P, L38I, Y94G
notes: single-arm
B19: TR01H074-E22Hh/none-Hi-Kn010G3/L0000-k0 (antibody, human IgG1, kappa, L234A L235A, N297A)
heavy: B1 heavy with L11V, R16G, D75A, L81I, A111I
chain: B1 chain
light: B1 light with P25S, P29L, Y94G
notes: single-arm
B20: TR01H082-E22Hh/none-Hi-Kn010G3/L0260-k0 (antibody, human IgG1, kappa, L234A L235A, N297A)
heavy: B1 heavy with S106G
chain: B1 chain
light: B1 light with Y94T
notes: single-arm
B21: TR01H082-E22Hh/none-Hi-Kn010G3/L0262-k0 (antibody, human IgG1, kappa, L234A L235A, N297A)
heavy: B1 heavy with S106G
chain: B1 chain
light: B1 light with P25S, S28P, Y94A
notes: single-arm
B22: TR01H082-E22Hh/none-Hi-Kn010G3/L0000-k0 (antibody, human IgG1, kappa, L234A L235A, N297A)
heavy: B1 heavy with S106G
chain: B1 chain
light: B1 light with P25S, P29L, Y94G
notes: single-arm
B23: TR01H081-E22Hh/none-Hi-Kn010G3/L0262-k0 (antibody, human IgG1, kappa, L234A L235A, N297A)
heavy: B1 heavy with D75A, L81I, S106G, A111I
chain: B1 chain
light: B1 light with P25S, S28P, Y94A
notes: single-arm
B24: TR01H071-E22Hh/none-Hi-Kn010G3/L0226-k0 (antibody, human IgG1, kappa, L234A L235A, N297A)
heavy: B1 heavy with Q56N, D75A, L81I, A111I
chain: B1 chain
light: B1 light with P25S, L38I, Y94I
notes: single-arm
B25: TR01H082-E22Hh/none-Hi-Kn010G3/L0011-k0 (antibody, human IgG1, kappa, L234A L235A, N297A)
heavy: B1 heavy with S106G
chain: B1 chain
light: B1 light with P25S, S28P, P29L, Y94G
notes: single-arm
B26: TR01H067-E22Hh/none-Hi-Kn010G3/TR01L016-k0 (antibody, human IgG1, kappa, L234A L235A, N297A)
heavy: B1 heavy
chain: B1 chain
light: B1 light with P25S, Q42L, A48S, R50Q
notes: single-arm
B27: TR01H082-E22Hh/none-Hi-Kn010G3/L0267-k0 (antibody, human IgG1, kappa, L234A L235A, N297A)
heavy: B1 heavy with S106G
chain: B1 chain
light: B1 light with Y94V
notes: single-arm
B28: TR01H082-E22Hh/none-Hi-Kn010G3/L0259-k0 (antibody, human IgG1, kappa, L234A L235A, N297A)
heavy: B1 heavy with S106G
chain: B1 chain
light: B1 light with P25S, L38I, Y94T
notes: single-arm
B29: TR01H072-E22Hh/none-Hi-Kn010G3/L0000-k0 (antibody, human IgG1, kappa, L234A L235A, N297A)
heavy: B1 heavy with D75A, L81I, A111I
chain: B1 chain
light: B1 light with P25S, P29L, Y94G
notes: single-arm
B30: TR01H067-E22Hh/none-Hi-Kn010G3/TR01L019-k0 (antibody, human IgG1, kappa, L234A L235A, N297A)
heavy: B1 heavy
chain: B1 chain
light: B1 light with R24Q, P25A, Q27E, Q42L, A48S, R50Q
notes: single-arm
B31: TR01H081-E22Hh/none-Hi-Kn010G3/L0000-k0 (antibody, human IgG1, kappa, L234A L235A, N297A)
heavy: B1 heavy with D75A, L81I, S106G, A111I
chain: B1 chain
light: B1 light with P25S, P29L, Y94G
notes: single-arm
B32: TR01H069-E22Hh/none-Hi-Kn010G3/L0000-k0 (antibody, human IgG1, kappa, L234A L235A, N297A)
heavy: B1 heavy with L11V, R16G, A111I
chain: B1 chain
light: B1 light with P25S, P29L, Y94G
notes: single-arm
B33: TR01H071-E22Hh/none-Hi-Kn010G3/L0000-k0 (antibody, human IgG1, kappa, L234A L235A, N297A)
heavy: B1 heavy with Q56N, D75A, L81I, A111I
chain: B1 chain
light: B1 light with P25S, P29L, Y94G
notes: single-arm
B34: TR01H071-E22Hh/none-Hi-Kn010G3/L0200-k0 (antibody, human IgG1, kappa, L234A L235A, N297A)
heavy: B1 heavy with Q56N, D75A, L81I, A111I
chain: B1 chain
light: B1 light with Y94G
notes: single-arm
B35: TR01H067-E22Hh/none-Hi-Kn010G3/L0262-k0 (antibody, human IgG1, kappa, L234A L235A, N297A)
heavy: B1 heavy
chain: B1 chain
light: B1 light with P25S, S28P, Y94A
notes: single-arm
B36: TR01H073-E22Hh/none-Hi-Kn010G3/L0000-k0 (antibody, human IgG1, kappa, L234A L235A, N297A)
heavy: B1 heavy with A111I
chain: B1 chain
light: B1 light with P25S, P29L, Y94G
notes: single-arm

target: T1, soluble human CD3ε chain (human, UniProt P07766 23-126, limits assumed); assay: SPR (Biacore)
T1 construct: the text says soluble human CD3ε chain; also called human CD3 epsilon chain
T1 sequence (P07766 23-126 limits assumed): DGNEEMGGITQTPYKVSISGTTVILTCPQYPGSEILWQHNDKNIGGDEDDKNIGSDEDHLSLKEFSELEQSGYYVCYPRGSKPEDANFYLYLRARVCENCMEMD

Kd | Binder
5.88 nM | B1
47.2 nM | B2
47.6 nM | B3
10.4 nM | B4
9.46 nM | B5
4.75 nM | B6
47.8 nM | B7
47 nM | B8
22.9 nM | B9
30.9 nM | B10
13.5 nM | B11
42.5 nM | B12
44.9 nM | B13
6.83 nM | B14
34.4 nM | B15
6.7 nM | B16
40.7 nM | B17
9.51 nM | B18

Kd | Binder
29.1 nM | B19
45.3 nM | B20
39.8 nM | B21
73.7 nM | B22
5.76 nM | B23
25.1 nM | B24
59.5 nM | B25
10.9 nM | B26
22.9 nM | B27
50.7 nM | B28
20.3 nM | B29
12.1 nM | B30
15.6 nM | B31
71.1 nM | B32
8.85 nM | B33
6.13 nM | B34
49.2 nM | B35
59.7 nM | B36
